Data reported in patent US20210030857A1 (NGM BIOPHARMACEUTICALS, published 2021).

T1: cynomolgus beta klotho expressed on cells (cynomolgus monkey (Macaca fascicularis), UniProt Q86Z14 1-1044 (human entry))
T1 construct: also called Cynomolgus KLB
T1 chain: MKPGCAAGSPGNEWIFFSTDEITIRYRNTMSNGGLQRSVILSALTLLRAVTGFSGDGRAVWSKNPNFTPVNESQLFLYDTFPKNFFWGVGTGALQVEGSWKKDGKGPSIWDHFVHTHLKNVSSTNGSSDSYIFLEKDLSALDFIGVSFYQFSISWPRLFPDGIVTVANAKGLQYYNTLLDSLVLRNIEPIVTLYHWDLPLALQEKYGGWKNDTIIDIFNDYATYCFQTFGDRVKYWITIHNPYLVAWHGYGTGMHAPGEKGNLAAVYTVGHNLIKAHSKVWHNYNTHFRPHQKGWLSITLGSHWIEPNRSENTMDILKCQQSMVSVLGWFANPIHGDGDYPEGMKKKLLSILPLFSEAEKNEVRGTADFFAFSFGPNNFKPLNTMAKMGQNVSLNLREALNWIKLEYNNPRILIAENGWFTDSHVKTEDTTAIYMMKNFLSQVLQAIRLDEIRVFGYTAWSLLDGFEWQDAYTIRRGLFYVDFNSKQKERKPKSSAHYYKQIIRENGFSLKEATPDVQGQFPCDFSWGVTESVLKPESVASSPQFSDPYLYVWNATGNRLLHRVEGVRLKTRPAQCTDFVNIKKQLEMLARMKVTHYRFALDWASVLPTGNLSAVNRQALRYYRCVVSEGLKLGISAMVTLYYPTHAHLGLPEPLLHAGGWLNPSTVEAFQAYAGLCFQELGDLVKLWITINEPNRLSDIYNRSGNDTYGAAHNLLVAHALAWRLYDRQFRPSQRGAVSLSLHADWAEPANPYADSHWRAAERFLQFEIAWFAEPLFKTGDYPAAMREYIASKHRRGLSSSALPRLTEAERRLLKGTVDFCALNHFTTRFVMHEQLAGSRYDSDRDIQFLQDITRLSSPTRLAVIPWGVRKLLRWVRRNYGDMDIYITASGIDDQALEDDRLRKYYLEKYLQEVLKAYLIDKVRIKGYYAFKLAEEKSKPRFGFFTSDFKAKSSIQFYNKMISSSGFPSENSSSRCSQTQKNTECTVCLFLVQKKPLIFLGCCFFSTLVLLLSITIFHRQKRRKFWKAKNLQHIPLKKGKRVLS

B1: negative control antibody, anti-keyhole limpet hemocyanin (KLH) antibody (antibody, human IgG1, kappa, V domains shown)
VH: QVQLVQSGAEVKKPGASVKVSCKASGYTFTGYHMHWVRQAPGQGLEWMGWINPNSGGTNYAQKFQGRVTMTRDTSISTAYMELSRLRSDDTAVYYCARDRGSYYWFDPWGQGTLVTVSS
VL: DIQMTQSPSSLSASVGDRVTITCRASQGIRNDLGWYQQKPGKAPKRLIYAASSLQSGVPSRFSGSGSGTEFTLTISSLQPEDFATYYCLQHNSYPLTFGGGTKVEIKR
notes: also called Neg; Control; anti-KLH antibody
B2: humanized 5H23 antibody (VH SEQ ID NO: 271 and VL SEQ ID NO: 276) (antibody, V domains shown)
VH: QVQLQQSGAEVKKPGASVKVSCKASGYTFTSYDINWVRQAPGQGLEWIGWIYPGDGSTKYNEKFKGKATITRDTSASTAYMELSSLRSEDTAVYFCARSDYYGSRSFAYWGQGTLVTVSS
VL: DIVMTQSPDSLAVSLGERATINCRASKSVSTSGYVYMHWYQQKPGQPPKLLIYLASYLESGVPDRFSGSGSGTDFTLTISSVQAEDVAVYYCQHSRDLTFPFGGGTKLEIK
notes: also called h5H23; h5H23 (Prep 1)

Tests used:
Assay in all cases: FACS on transfected Expi293 cells, antibody 1 µg/ml, labelled anti-human Fc
[1] = biological target: T1, cynomolgus beta klotho expressed on …
Protocol: (§1) Studies were performed in order to localize the binding site on human KLB of anti-beta klotho antibodies in the 5H23 epitope bin, including 5H23 as described in Example 3, with sequences shown in Tables 1-10 and FIGS. 1-3, and human anti-beta klotho antibodies in the 5H23 epitope bin, such as humanized 5H23 antibodies (e.g., VH SEQ ID NO: 271 and VL SEQ ID NO: 276). For example, FACS-based binding assays for domain mapping were performed on Expi293 cells (Life Technologies, A14635) that were transiently transfected with plasmids encoding variants of KLB: human, mouse, cynomolgus, a chimeric version in which the KL1 domain sequence of mouse KLB (M1-F506) replaces the KL1 domain of human KLB (M1-F508) to create mouse-human KLB (SEQ ID NO: 376), and a second chimera in which the human KL1 sequence (M1-F508) replaces the KL1 domain of mouse KLB (M1-F506) to create human-mouse KLB (SEQ ID NO: 374). Additionally, the expression vector pYD7 harboring no KLB sequence was transfected as a negative control.
(§2) In some studies, binding of a purified sample of a humanized 5H23 antibody (e.g., VH SEQ ID NO: 271 and VL SEQ ID NO: 276) to KLB variants was determined by FACS analysis. […] After washing with PBS/1% BSA/0.1% azide, transfected cells were then co-incubated with labeled anti-human Fc (Jackson lmmunoresearch) for 30 minutes at 4° C. After washing with PBS/1% BSA/0.1% azide, cells were acquired on flow cytometer (FACS Calibur) and analyzed by cytometric software (FlowJo). To display the resulting data, graphs plotting the number of cells as a function of fluorescence intensity were generated, and the median fluorescence intensity (MFI) was determined for each sample as shown in Table 30.

[2] = biological target: T2, mouse-human KLB chimeric protein (mouse KLB (M1-F506)-human KLB (S509-S1044)) on cells (mouse/human chimera, UniProt Q86Z14 1-1044 (human entry))
T2 construct: also called Mouse-Human chimeric KLB; chMoHu
Protocol: as §1, §2

[3] = biological target: T3, human-mouse KLB chimeric protein (human KLB (M1-F508)-mouse KLB (P507-S1043)) on cells (human/mouse chimera, UniProt Q99N32 1-1043 (mouse entry))
T3 construct: also called Human-Mouse chimeric KLB; chHuMo
Protocol: as §1, §2

Binder | Mean Fluorescence intensity [1] [MFI] | Mean Fluorescence intensity [2] [MFI] | Mean Fluorescence intensity [3] [MFI]
B1 | 9.26 | 5.44 | 6.01
B2 | 1910 | 26.1 | 9.29
